Assay results as given in patent US20240067711A1 (MEDYTOX, published 2024).

B1: Aflibercept CL kappa hexamer AAA0600 (Fc fusion)
chain: SDTGRPFVEMYSEIPEIIHMTEGRELVIPCRVTSPNITVTLKKFPLDTLIPDGKRIIWDSRKGFIISNATYKEIGLLTCEATVNGHLYKTNYLTHRQTNTIIDVVLSPSHGIELSVGEKLVLNCTARTELNVGIDFNWEYPSSKHQHKKLVNRDLKTQSGSEMKKFLSTLTIDGVTRSDQGLYTCAASSGLMTKKNSTFVRVHEKTVAAPRTVAAPSVFIFPPSDEQLKSGTASVVCLLNNFYPREAKVQWKVDNALQSGNSQESVTEQDSKDSTYSLSSTLTLSKADYEKHKVYACEVTHQGLSSPVTKSFNRGESDKTHTCPPCPAPEAAGGPSVFLFPPKPKDTLMISRTPEVTCVVVDVSHEDPEVKFNWYVDGVEVHNAKTKPREEQYNSTYRVVSVLTVCLQDWLNGKEYKCKVSNKALPAGIEKTISKAKGQPREPQVYTLPPSRDELTKNQVSLTCLVKGFYPSDIAVEWESNGQPENNYKTTPPVLDSDGSFFLYSKLTVDKSRWQQGNVFSCSVMHHALHNHYTQKSLSLSPGKPTLYNVSLVMSDTAGTCY
B2: Hz2-F hexamer AAA0589 (antibody, human IgG1, kappa, L234A L235A)
heavy: EVQLVESGGGLVQPGGSLRLSCAVSGIDLNRYSLTWIRQAPGKGLEWVAIVGGSGVTYYANWAKGRFTISRDDSKNTLYLQMNSLRAEDTAVYYCARGSDRSAYAPDIWGQGTLVTVSSASTKGPSVFPLAPSSKSTSGGTAALGCLVKDYFPEPVTVSWNSGALTSGVHTFPAVLQSSGLYSLSSVVTVPSSSLGTQTYICNVNHKPSNTKVDKKVEPKSCDKTHTCPPCPAPEAAGGPSVFLFPPKPKDTLMISRTPEVTCVVVDVSHEDPEVKFNWYVDGVEVHNAKTKPREEQYNSTYRVVSVLTVCLQDWLNGKEYKCKVSNKALPAGIEKTISKAKGQPREPQVYTLPPSRDELTKNQVSLTCLVKGFYPSDIAVEWESNGQPENNYKTTPPVLDSDGSFFLYSKLTVDKSRWQQGNVFSCSVMHHALHNHYTQKSLSLSPGKPTLYNVSLVMSDTAGTCY
light: DIQLTQSPSSLSASVGDRVTITCQSSQSIYSNNYLAWYQQKPGKAPKLLLYQASKLASGVPSRFSGSGSGTDFTLTISSLQPEDFATYYCLGVYDDDADNAFGQGTKVEIKRTVAAPSVFIFPPSDEQLKSGTASVVCLLNNFYPREAKVQWKVDNALQSGNSQESVTEQDSKDSTYSLSSTLTLSKADYEKHKVYACEVTHQGLSSPVTKSFNRGEC
notes: also called hexameric antibody AAA0589
B3: Omal013 (positive control antibody) (antibody, human IgG1, kappa)
heavy: not shown
light: B2 light
notes: also called positive control group
B4: Hz2 humanized anti-VEGF antibody (monomer) (antibody, V domains shown)
VH: EVQLVESGGGLVQPGGSLRLSCAVSGIDLNRYSLTWIRQAPGKGLEWVAIVGGSGVTYYANWAKGRFTISRDDSKNTLYLQMNSLRAEDTAVYYCARGSDRSAYAPDIWGQGTLVTVSS
VL: DIQLTQSPSSLSASVGDRVTITCQSSQSIYSNNYLAWYQQKPGKAPKLLLYQASKLASGVPSRFSGSGSGTDFTLTISSLQPEDFATYYCLGVYDDDADNAFGQGTKVEIKR
B5: Lu007-F hexamer AAA0592 (antibody, human IgG1, kappa, L234A L235A)
heavy: EVQLVESGGGLVQPGGSLRLSCAASGYDFTHYGMNWIRQAPGKGLEWVGWINTYTGEPTYAADFKRRFTFSLDTSKSTVYLQMNSLRAEDTAVYYCAKYPHYYGTSHWYFDVWGQGTLVTVSSASTKGPSVFPLAPSSKSTSGGTAALGCLVKDYFPEPVTVSWNSGALTSGVHTFPAVLQSSGLYSLSSVVTVPSSSLGTQTYICNVNHKPSNTKVDKKVEPKSCDKTHTCPPCPAPEAAGGPSVFLFPPKPKDTLMISRTPEVTCVVVDVSHEDPEVKFNWYVDGVEVHNAKTKPREEQYNSTYRVVSVLTVCLQDWLNGKEYKCKVSNKALPAGIEKTISKAKGQPREPQVYTLPPSRDELTKNQVSLTCLVKGFYPSDIAVEWESNGQPENNYKTTPPVLDSDGSFFLYSKLTVDKSRWQQGNVFSCSVMHEALHNHYTQKSLSLSPGKPTLYNVSLVMSDTAGTCY
light: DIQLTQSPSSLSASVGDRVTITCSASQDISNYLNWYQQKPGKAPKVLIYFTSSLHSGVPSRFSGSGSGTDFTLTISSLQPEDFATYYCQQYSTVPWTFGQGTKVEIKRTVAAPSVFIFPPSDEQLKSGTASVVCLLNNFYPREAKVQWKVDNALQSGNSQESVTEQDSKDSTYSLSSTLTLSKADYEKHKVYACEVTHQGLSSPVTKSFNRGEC
notes: also called Lu007 hexamer AAA0592

What was measured:
[1] = target: human VEGF (hVEGF), isoform not stated (human, UniProt P15692-4 27-191, limits assumed); assay: ELISA on coated hVEGF (500 ng/ml), detection with anti-hIgG-Fc HRP, A450
Chain of human VEGF (hVEGF), isoform not stated (P15692 other isoform, or with tags, fused parts or gaps limits assumed): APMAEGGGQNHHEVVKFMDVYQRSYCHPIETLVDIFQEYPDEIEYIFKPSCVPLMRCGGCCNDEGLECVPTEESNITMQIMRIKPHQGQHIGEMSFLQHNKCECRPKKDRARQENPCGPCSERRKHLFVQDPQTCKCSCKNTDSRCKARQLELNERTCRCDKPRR
Procedure: ELISA was performed to confirm the binding ability to VEGF. First, 100 μl of hVEGF was added to an immunoplate at a concentration of 500 ng/ml and caused to react at room temperature for 1 hour. 2% skim milk was dissolved in PBST, and then, 200 μl thereof was added onto the VEGF-coated wells and the reaction was caused to occur at room temperature for 2 hours. After the reaction, the well was washed three times using 300 μl of PBST, and then, Hz2, AAA0289, AAA0308, AAA0589, AAA0592, and AAA0600, which were purified above, were diluted starting from at a concentration of 100 ng/ml by two-fold to make a total of 11 samples. The samples were placed on the VEGF-coated well and the reaction was caused to occur at room temperature for 20 minutes. After the reaction, the well was washed three times using 300 μl of PBST, and then, anti-hIgG-Fc HRP (1:3000, Thermo) was added thereto at 100 μl/well and then reacted for 30 minutes. Then, the well was washed three times as described above, and the TMB (BioFx company) solution was added thereto at 100 μl/well to develop color at room temperature for 5 minutes. After the color development, 2N sulfuric acid was added at 50 μl/well to stop the color development, and the absorbance was measured at 450 nm, and results are shown in FIGS. 4A and 4B.

[2] = target: T1, recombinant human VEGF165 (human, UniProt P15692-4 27-191); assay: cell-based or functional assay
T1 sequence (P15692 other isoform, or with tags, fused parts or gaps limits assumed): as above

[3] = target: T1, recombinant human VEGF165; assay: cell-based or functional assay; remark: listed apart in the source
[4] = target: T1, recombinant human VEGF165; assay: Octet red96E BLI, human VEGF165 amine-coupled on AR2G sensor, hexamer as analyte (0.0625-0.6 nM), 30° C.
Procedure: (§1) Affinity for VEGF was determined as follows. Octet red96E was used, and human VEGF immobilized on the biosensor AR2G was interacted with AAA0308, AAA0589, AAA0592, and AAA0600 used as analytes, and binding and dissociation values thereof were compared and measured. As human VEGF, recombinant human VEGF165 (Sinobiological company) was used, and VEGF was immobilized on the AR2G sensor chip by an amine coupling method. At this time, the amount of VEGF used was 10 μg/ml, and the degree of coating was confirmed using a wavelength of 5 nm.
(§2) During measurement, the rotation speed was set to 100, and the temperature was measured at 30° C.
(§3) The concentration of the sample was adjusted using a kinetic buffer (Molecular Device Co.). The antibody solution of each concentration was used as a binding phase for 5 minutes, and then switched to a kinetic buffer to form a dissociation phase for 30 minutes.

[5] = target: T2, FcγRI (R&D system company, 1257-Fc) (UniProt P12314 16-288); assay: Octet; FcγRI loaded on anti-penta-His biosensor, antibody 100 nM as analyte
T2 sequence (P12314 16-288 limits assumed): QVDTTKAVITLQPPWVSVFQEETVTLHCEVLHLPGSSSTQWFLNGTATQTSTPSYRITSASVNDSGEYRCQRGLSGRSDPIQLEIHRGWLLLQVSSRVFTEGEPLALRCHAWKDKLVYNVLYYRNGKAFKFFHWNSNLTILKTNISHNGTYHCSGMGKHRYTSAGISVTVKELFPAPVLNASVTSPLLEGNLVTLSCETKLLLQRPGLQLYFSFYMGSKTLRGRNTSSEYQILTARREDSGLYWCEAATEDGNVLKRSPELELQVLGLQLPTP

[6] = target: T1, recombinant human VEGF165; assay: Octet red96E BLI, human VEGF165 amine-coupled on AR2G sensor, hexamer as analyte (0.0625-4 nM), 30° C.
Procedure: as §1, §2, §3

[7] = target: T2, FcγRI (R&D system company, 1257-Fc); assay: Octet; FcγRI loaded on anti-penta-His biosensor, antibody 100 nM as analyte, 2 min association and 2 min dissociation
Procedure: Binding evaluation for FcγR I, II, and III was performed as follows. Octet red96E was used, and […] FcγRI(R&D system company, 1257-Fc), […] FcγRII(R&D system company, 1597-CF), and […] FcγRIII(R&D system company, […]) were each loaded on the anti-pentia his biosensor, and a signal of about 5 nm was confirmed. In order to identify the reactivity of AAA0589 and AAA0592 to FcγRI, FcγRII, and FcγRIII, binding force was measured using an antibody concentration of 100 nM as an analyte. During measurement, rpm was set to 100, and the temperature was measured at 30° C. Samples were diluted using kinetic buffer (Molecular Device Co.). The antibody solution of each concentration was used as an association phase for 2 minutes, and then converted to a kinetic buffer to form a dissociation phase for 2 minutes.

Binder | EC50 (read off the curve) [1] | IC50 of inhibition of the VEGF-induced calcium increase in HUVEC cells [2] | IC50 (read off the curve) [3] | Kd [4] | binding result [5] | Kd [6] | koff [6] | kon [6] | binding result [7]
B1 | ~0.04 nM | 0.2 nM | ~0.2 nM | 0.00203 nM | – | – | – | – | –
B2 | ~0.04 nM | 0.2 nM | ~0.2 nM | – | no binding (tested: 100 nM) | < 0.001 nM | < 1e-07 s⁻¹ | 208000 M⁻¹ s⁻¹ | –
B3 | – | – | – | – | – | – | – | – | binds
B4 | ~0.02 nM | – | – | – | – | – | – | – | –
B5 | ~0.09 nM | 0.2 nM | ~0.3 nM | – | no binding (tested: 100 nM) | < 0.001 nM | < 1e-07 s⁻¹ | 666000 M⁻¹ s⁻¹ | –
